Reference: article PMC8189437 (Molecular Cell, 2021)

T1: Gid1 (S. cerevisiae, UniProt P53076)
T1 sequence: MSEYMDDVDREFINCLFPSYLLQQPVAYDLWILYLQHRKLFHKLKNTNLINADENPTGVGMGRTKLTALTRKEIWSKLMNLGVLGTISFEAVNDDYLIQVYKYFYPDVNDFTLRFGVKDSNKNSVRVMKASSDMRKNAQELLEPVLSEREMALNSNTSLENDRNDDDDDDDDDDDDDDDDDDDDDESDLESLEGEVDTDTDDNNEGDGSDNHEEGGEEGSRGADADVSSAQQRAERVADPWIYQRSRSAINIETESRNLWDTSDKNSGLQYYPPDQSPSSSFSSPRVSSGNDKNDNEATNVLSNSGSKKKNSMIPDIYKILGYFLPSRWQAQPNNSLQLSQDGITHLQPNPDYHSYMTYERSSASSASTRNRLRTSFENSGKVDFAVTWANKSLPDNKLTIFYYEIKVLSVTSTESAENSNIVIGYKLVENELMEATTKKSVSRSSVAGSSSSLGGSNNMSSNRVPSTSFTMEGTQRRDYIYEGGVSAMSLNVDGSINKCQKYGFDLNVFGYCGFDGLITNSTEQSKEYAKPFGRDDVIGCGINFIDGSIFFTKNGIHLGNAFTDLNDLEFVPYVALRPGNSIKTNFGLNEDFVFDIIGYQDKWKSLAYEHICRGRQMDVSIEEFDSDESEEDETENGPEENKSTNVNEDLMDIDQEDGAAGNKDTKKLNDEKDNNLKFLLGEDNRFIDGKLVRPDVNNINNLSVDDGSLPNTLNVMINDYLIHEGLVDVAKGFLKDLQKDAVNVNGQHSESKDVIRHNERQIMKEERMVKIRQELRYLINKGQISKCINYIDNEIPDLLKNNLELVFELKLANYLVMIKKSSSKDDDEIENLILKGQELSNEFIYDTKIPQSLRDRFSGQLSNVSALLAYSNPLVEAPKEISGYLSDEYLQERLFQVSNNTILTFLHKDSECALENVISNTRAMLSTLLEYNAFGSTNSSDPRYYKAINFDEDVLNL

B1: Gid7 (natural protein)
chain: MSHTNKIAYVLNNDTEETASPSSVGCFDKKQLTKLLIHTLKELGYDSAANQLLLESGGYQNESNHIQTFFKLIKTGQFHLINWQIVCSLPLAHSSPLRSEWLQRLLIPTPTPATTSLFDHMLLQLQYLQQLMSSVNSSTCSDAEIATLRNYVEIMILVNRQIFLEFFHPVTNSASHKGPHTALPVLYLRKILKNFIEIWDSLLVSNDQFLNEENIFNPETTLRELSTYLTNPKLTAQLNLERDHLIDAISKYIDPNELVPKGRLLHLLKQAIKYQQSQDIFNIIDPDDDASFSSPPHRINLLQDNFSHDLTVTFQEWKTIQDTTDEIWFLTFSPNGKYLASATSESSRGYFITVYDVEQDFKIYKTCVSLSQSVLYLMFSPDSRYLVACPFSEDVTIYDMNATSLPDASATDSFLLYPSTRLSPMDSFKLDTTTYPDDTESSASSSSRPANANSNQSRVWCCDAFHTAERAGWMVVGSPDREAIVHSLTTKESLFSLKGRTCIALGHDENISGRKSIDPAKVLYKPTSSNGNWQYVEDDETFPRVHDVKISYDDKYVLLMTHQGVIDVYDFSGFPSKEELSKQTVDPKNFLIPRIARLDVGKNMTCISLPLNTTHQGFHRQQISESQHLVLVSLQDNELQMWDYKENILIQKYFGQKQQHFIIRSCFAYGNKLVMSGSEDGKIYIWDRIRGNLVSVLSGHSTVMSNSTKPMGKNCNVVASNPADKEMFASGGDDGKIKIWKISRN
B2: Gid8 with a C-terminal twin-Strep tag (natural protein)
chain: MTISTLSNETTKSGSCSGQGKNGGKDFTYGKKCFTKEEWKEQVAKYSAMGELYANKTIHYPLKIQPNSSGGSQDEGFATIQTTPIEPTLPRLLLNYFVSMAYEDSSIRMAKELGFIRNNKDIAVFNDLYKIKERFHIKHLIKLGRINEAMEEINSIFGLEVLEETFNATGSYTGRTDRQQQQQQQQFDIDGDLHFKLLLLNLIEMIRSHHQQENITKDSNDFILNLIQYSQNKLAIKASSSVKKMQELELAMTLLLFPLSDSADSGSIKLPKSLQNLYSISLRSKIADLVNEKLLKFIHPRIQFEISNNNSKFPDLLNSDKKIITQNFTVYNNNLVNGSNGTKITHISSDQPINEKMSSNEVTAAANSVWLNQRDGNVGTGSAATTFHNLENKNYWNQTSELLSSSNGKEKGLEFNNYYSSEFPYEPRLTQIMKLWCWCENQLHHNQIGVPRVEN

Legend:
Experiment in all cases: cryo-EM structure
Gid1 = target: T1, Gid1
GID^SR4 = GID^SR4 (S. cerevisiae, UniProt P53076;P40208;P40547;P38263;Q12508;P40492)
GID^SR4, sequence (P40547 whole entry, chain 3 of 4): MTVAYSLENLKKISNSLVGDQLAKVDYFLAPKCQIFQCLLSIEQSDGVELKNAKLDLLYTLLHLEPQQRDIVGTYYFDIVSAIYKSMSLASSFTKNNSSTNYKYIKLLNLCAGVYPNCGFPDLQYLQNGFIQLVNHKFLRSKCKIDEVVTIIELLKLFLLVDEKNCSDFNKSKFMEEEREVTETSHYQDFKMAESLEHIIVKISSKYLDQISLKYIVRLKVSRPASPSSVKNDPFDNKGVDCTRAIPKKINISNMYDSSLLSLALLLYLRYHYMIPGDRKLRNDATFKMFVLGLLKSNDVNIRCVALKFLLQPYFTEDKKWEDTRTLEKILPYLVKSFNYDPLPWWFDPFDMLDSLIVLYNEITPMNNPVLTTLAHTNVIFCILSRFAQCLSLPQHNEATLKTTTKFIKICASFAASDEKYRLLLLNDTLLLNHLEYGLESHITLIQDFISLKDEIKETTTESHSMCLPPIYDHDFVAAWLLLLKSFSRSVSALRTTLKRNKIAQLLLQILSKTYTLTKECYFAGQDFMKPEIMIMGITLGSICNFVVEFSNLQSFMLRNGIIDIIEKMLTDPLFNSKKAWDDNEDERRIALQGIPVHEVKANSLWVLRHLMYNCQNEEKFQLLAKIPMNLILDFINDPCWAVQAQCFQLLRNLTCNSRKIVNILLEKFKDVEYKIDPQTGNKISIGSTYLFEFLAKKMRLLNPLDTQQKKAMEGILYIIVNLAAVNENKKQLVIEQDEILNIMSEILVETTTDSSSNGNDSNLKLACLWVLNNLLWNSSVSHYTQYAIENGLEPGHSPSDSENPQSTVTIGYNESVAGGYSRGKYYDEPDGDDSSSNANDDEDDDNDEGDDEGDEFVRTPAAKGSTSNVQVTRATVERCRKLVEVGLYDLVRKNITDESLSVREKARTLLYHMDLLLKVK
GID^SR4, sequence (P38263 117-362, chain 4 of 4): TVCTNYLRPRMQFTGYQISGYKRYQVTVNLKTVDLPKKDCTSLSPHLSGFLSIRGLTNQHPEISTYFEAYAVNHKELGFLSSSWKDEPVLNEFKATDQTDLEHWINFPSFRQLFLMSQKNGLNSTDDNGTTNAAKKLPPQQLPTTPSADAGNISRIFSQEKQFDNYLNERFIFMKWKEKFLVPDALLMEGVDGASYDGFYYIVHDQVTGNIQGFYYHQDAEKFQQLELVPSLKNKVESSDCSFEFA
GID^SR4, sequence (Q12508 whole entry, chain 5 of 4): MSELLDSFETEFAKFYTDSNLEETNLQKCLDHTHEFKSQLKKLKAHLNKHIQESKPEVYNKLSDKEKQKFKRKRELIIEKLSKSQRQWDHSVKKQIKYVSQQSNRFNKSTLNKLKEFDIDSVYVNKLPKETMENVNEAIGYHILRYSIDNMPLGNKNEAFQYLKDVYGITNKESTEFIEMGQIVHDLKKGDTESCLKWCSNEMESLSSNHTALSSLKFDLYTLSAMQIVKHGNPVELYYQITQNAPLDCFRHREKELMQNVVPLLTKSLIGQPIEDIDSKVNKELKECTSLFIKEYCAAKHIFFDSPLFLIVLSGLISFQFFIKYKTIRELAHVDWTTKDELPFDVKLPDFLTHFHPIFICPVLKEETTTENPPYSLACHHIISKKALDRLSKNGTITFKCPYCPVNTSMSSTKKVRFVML
GID^SR4, sequence (P40492 whole entry, chain 6 of 4): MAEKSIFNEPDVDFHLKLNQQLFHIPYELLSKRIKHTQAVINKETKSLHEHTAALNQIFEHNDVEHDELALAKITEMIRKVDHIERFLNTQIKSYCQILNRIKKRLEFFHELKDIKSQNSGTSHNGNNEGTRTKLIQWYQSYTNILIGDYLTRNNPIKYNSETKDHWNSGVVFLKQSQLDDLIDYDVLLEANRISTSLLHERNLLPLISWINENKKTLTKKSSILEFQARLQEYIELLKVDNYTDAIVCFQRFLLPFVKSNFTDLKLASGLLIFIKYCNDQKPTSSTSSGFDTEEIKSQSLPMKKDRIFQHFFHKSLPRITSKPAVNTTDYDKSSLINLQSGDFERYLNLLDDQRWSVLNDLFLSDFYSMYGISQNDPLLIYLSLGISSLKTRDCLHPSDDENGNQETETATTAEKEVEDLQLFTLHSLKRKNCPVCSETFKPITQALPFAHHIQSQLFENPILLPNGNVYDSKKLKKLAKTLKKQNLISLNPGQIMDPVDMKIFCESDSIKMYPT

Gid7 (S. cerevisiae) = Gid7 (S. cerevisiae) (UniProt P25569)
Gid7 = target: B1

## B1
Gid1
  binding result: binds
GID^SR4
  binding result: binds
Gid7 (S. cerevisiae)
  stoichiometry N: 2

## B2
Gid7
  binding result: binds
